Assay results as given in the RNAGym collection of RNA variant scans (doi:10.1093/molbev/msab373).

B1: Azoarcus group I ribozyme (parent)
chain: GUGCCUUGCGCCGGGAAACCACGCAAGGGAUGGUGUCAAAUUCGGCGAAACCUAAGCGCCCGCCCGGGCGUAUGGCAACGCCGAGCCAAGCUUCGGCGCCUGCGCCGAUGAAGGUGUAGAGACUAGACGGCACCCACCUAAGGCAAACGCUAUGGUGAAGGCAUAGUCCAGGGAGUGGCGAAAGUCACACAAACCGG

Variants of: B1
Assay: reverse-splicing fitness (ratio to wild type); higher = more active; in vitro selection; Mg2+ level not given
Outline: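 An in vitro group I ribozyme library with randomized positions was T7-transcribed and gel-purified. In triplicate, 10 pmol RNA in EPPS pH 7.5 was reacted with 50 pmoles of a 30-nt RNA substrate for 1 h at 37 °C across several added MgCl2 levels (1–48 mM), then stopped with EDTA. Products were reverse transcribed from a substrate-complementary primer, PCR-amplified and sequenced (HiSeq 4000). Fitness is a variant's read proportion after selection over that before, normalised to wild type.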

Variant	reverse-splicing fitness
A120C A145G C150U C169G U176C	0.0182
A120C A145G C150U C169G U176A	0.014
A120C A145G C150U C169G U176G	0.004
A111U A145G C150U C169A	0.025
A111U A145G C150U C169G	0.0498
A111U A145G C150U C169U	0.0923
A111U A145U C150G U176C	0.193
A111U A145U C150G U176G	0.025
A111U A145U C150G U176A	0.138
A111U A145U C150G C169U U176A	0.00897
A111U A145U C150G C169U U176G	0.00601
A111U A145U C150G C169U U176C	0.0129
A120C A145C U176C	0.574
A120C A145C U176G	0.266
A120C A145C U176A	0.693
A111U C150A C169U U176G	0.00721
A111U C150A C169U U176C	0.0188
A111U C150A C169U U176A	0.0201
A111U A145G C169U	0.111
A111U A145G C169G	0.0699
A111U A145G C169A	0.0306
A120C A145C C150A C169A	0.00701
A120C A145C C150A C169U	0.0518
A120C A145C C150A C169G	0.00626

Variant	reverse-splicing fitness
A120C A145G C150A U176G	0.0729
A120C A145G C150A U176A	0.263
A120C A145G C150A U176C	0.271
A111U A145U C169G U176A	0.016
A111U A145U C169G U176G	0.00562
A111U A145U C169G U176C	0.0214
A111U C150G C169A U176A	0.0102
A111U C150G C169A U176G	0.00689
A111U C150G C169A U176C	0.0111
A120C A145C C169G U176G	0.00338
A120C A145C C169G U176C	0.0103
A120C A145C C169G U176A	0.0163
A111U C150U C169A	0.02
A111U C150U C169G	0.0372
A111U C150U C169U	0.0631
A120C A145G C150U U176G	0.179
A120C A145G C150U U176C	0.566
A120C A145G C150U U176A	0.626
A111U A145G C150U C169G U176A	0.0164
A111U A145G C150U C169G U176G	0.00671
A111U A145G C150U C169G U176C	0.0269
A111U A145U C150G C169A U176C	0.0101
A111U A145U C150G C169A U176G	0.00591
A111U A145U C150G C169A U176A	0.0103

Variant	reverse-splicing fitness
A120C A145C C150A U176C	0.102
A120C A145C C150A U176G	0.0481
A120C A145C C150A U176A	0.112
A120C A145C C169A U176A	0.00918
A120C A145C C169A U176G	0.00331
A120C A145C C169A U176C	0.00838
A120C A145C C150U C169A	0.0127
A120C A145C C150U C169G	0.0109
A120C A145C C150U C169U	0.194
A120C A145G C150G C169A U176G	0.00789
A120C A145G C150G C169A U176A	0.0131
A120C A145G C150G C169A U176C	0.0132
A111U C169A	0.0292
A111U C169U	0.103
A111U C169G	0.0649
A120C A145U C150A C169A U176A	0.0124
A120C A145U C150A C169A U176G	0.00377
A120C A145U C150A C169A U176C	0.00632
A120C A145C C150U C169A U176C	0.008
A120C A145C C150U C169A U176G	0.00465
A120C A145C C150U C169A U176A	0.0105
A120C A145U C150A C169U	0.0832
A120C A145U C150A C169G	0.00666
A120C A145U C150A C169A	0.00801

Variant	reverse-splicing fitness
A120C A145G C150A C169U U176C	0.0824
A120C A145G C150A C169U U176A	0.0678
A120C A145G C150A C169U U176G	0.00697
A111U C150U C169A U176C	0.0138
A111U C150U C169A U176G	0.00669
A111U C150U C169A U176A	0.015
A111U A145U C150A C169U U176G	0.00626
A111U A145U C150A C169U U176C	0.0162
A111U A145U C150A C169U U176A	0.0151
A120C	0.9
A120C A145G C169G U176G	0.00382
A120C A145G C169G U176C	0.022
A120C A145G C169G U176A	0.0155
A111U A145U C169U U176C	0.0326
A111U A145U C169U U176G	0.00639
A111U A145U C169U U176A	0.0258
A111U A145G C150G U176A	0.0997
A111U A145G C150G U176G	0.0223
A111U A145G C150G U176C	0.171
A111U A145G C169U U176C	0.0327
A111U A145G C169U U176G	0.00581
A111U A145G C169U U176A	0.0265
A120C A145U C150G C169G	0.00781
A120C A145U C150G C169A	0.00905

Variant	reverse-splicing fitness
A111U A145G C150A U176A	0.238
A111U A145G C150A U176G	0.0951
A111U A145G C150A U176C	0.299
A120C A145G U176A	0.707
A120C A145G U176C	0.652
A120C A145G U176G	0.212
A111U C169A U176G	0.00592
A111U C169A U176A	0.0172
A111U C169A U176C	0.0214
A111U A145U C150U	0.88
A111U A145U C150G	0.41
A111U A145U C150A	0.379
A111U C150A C169U	0.0167
A111U C150A C169G	0.0124
A111U C150A C169A	0.0111
A111U A145G C150A C169U U176C	0.0191
A111U A145G C150A C169U U176G	0.00686
A120C A145C C150U	0.46
A120C A145C C150A	0.128
A120C A145C C150G	0.279
A111U A145G U176A	0.701
A111U A145G U176C	0.721
A111U A145G U176G	0.267
A111U C169G U176C	0.0333

Variant	reverse-splicing fitness
A111U C169G U176A	0.02
A111U C169G U176G	0.00596
A111U C150G C169U U176G	0.00634
A111U C150G C169U U176A	0.00776
A111U C150G C169U U176C	0.0145
A120C A145G C150G C169U U176A	0.0149
A120C A145G C150G C169U U176G	0.00611
A120C A145G C150G C169U U176C	0.0406
A111U A145G C150U C169A U176G	0.00732
A111U A145G C150U C169A U176A	0.0155
A111U A145G C150U C169A U176C	0.017
A111U A145U C150A C169G	0.0109
A111U A145U C150A C169A	0.01
A111U A145U C150A C169U	0.018
A111U A145G C150G C169G	0.011
A111U A145G C150G C169U	0.0181
A111U A145G C150G C169A	0.0104
A111U A145G C169G U176A	0.0249
A111U A145G C169G U176G	0.00535
A111U A145G C169G U176C	0.0358
A120C A145G C150A C169G U176G	0.00453
A120C A145G C150A C169G U176A	0.017
A120C A145G C150A C169G U176C	0.0234
A120C A145C C150A C169A U176G	0.00372

Variant	reverse-splicing fitness
A120C A145C C150A C169A U176C	0.00472
A120C A145C C150A C169A U176A	0.00897
A111U C169U U176C	0.0365
A111U C169U U176A	0.0279
A111U C169U U176G	0.00752
A120C A145G C150G C169U	0.108
A120C A145G C150G C169G	0.00987
A120C A145G C150G C169A	0.0119
A120C A145C	0.783
A120C A145G	0.772
A120C A145U	0.886
A111U U176A	0.823
A111U U176C	0.793
A111U U176G	0.288
A111U A145G C150U	0.915
A111U A145G C150G	0.359
A120C A145U C150A	0.215
A120C A145U C150G	0.262
A120C A145G C169U	0.47
A120C A145G C169G	0.0256
A120C A145G C169A	0.0366
A120C A145C C150G C169G U176A	0.00848
A120C A145C C150G C169G U176C	0.00582
